Results as given in patent US20240294945A1.

What was measured:
Experiment in all cases: cell-based or functional assay
[1] = biological target: right-TALE:G1333-C, mtND1-targeted DdCBE subunit (Burkholderia cenocepacia)
[2] = biological target: TALE-free DddAtox half G1333-C (Burkholderia cenocepacia) (UniProt P0DUH5)
[3] = biological target: right-TALE:G1397C (the C-terminal G1397 DddAtox half fused to the C-terminus of the right-TALE array (Burkholderia cenocepacia))
[4] = biological target: TALE-free DddAtox half G1397-C (Burkholderia cenocepacia)
[5] = biological target: TALE-free DddAtox half G1333-N (Burkholderia cenocepacia) (UniProt P0DUH5)
[6] = biological target: TALE-free DddAtox half G1397-N (Burkholderia cenocepacia) (UniProt P0DUH5)

left-TALE:G1333-N, mtND1-targeted DdCBE subunit
base editing efficiency at position C8 of the mtND1 target, HEK293T [1]: 56.1%
base editing efficiency at position C8 of the mtND1 target, HEK293T [2]: 32.7%

left-TALE:G1397N (the N-terminal G1397 DddAtox half fused to the C-terminus of the left-TALE array),
cytosine-to-thymine editing efficiency at C11 of the mtND1 target, HEK293T [3]: 60.7%
base editing efficiency at the mtND1 target, HEK293T [4]: 31%

right-TALE:G1333-C, mtND1-targeted DdCBE subunit
base editing efficiency at position C8 of the mtND1 target, HEK293T [5]: 18.1%

right-TALE:G1397C (the C-terminal G1397 DddAtox half fused to the C-terminus of the right-TALE array
base editing efficiency at the mtND1 target, HEK293T [6]: 8.1%
